According to US20130123350, “NUCLEIC ACID MOLECULE CAPABLE OF BINDING TO c-MET AND USE THEREOF” (KANAGAWA PREFECTURAL HOSPITAL ORGANIZATION, published 2013):

B1: g1-d5del (ssRNA)
RNA: GGGACGCUCACGUACGCUAAACACACUGAGAGUUUGACCAGCUAUUAAAUGGGUCGUGACUCAGUGCCUGGACGU
B2: g1-u20del (ssRNA)
RNA: GGGCACUGAGAGUUUGACCAGCUAUUAAAUGGGUCGUGACUCAGUGCCUGGACGUG
B3: g1-u5del (ssRNA)
RNA: GGGCACGUACGCUAAACACACUGAGAGUUUGACCAGCUAUUAAAUGGGUCGUGACUCAGUGCCUGGACGUGCAG
B4: g1-u10del (ssRNA)
RNA: GGGACGCUAAACACACUGAGAGUUUGACCAGCUAUUAAAUGGGUCGUGACUCAGUGCCUGGACGUGC
B5: g1-d10del (ssRNA)
RNA: GGGACGCUCACGUACGCUAAACACACUGAGAGUUUGACCAGCUAUUAAAUGGGUCGUGACUCAGUGCCUG
B6: g26 (ssRNA)
RNA: GGGACGCUCACGUACGCUAAGCUCCACCAGGUGUAGCUAGCCUGUAGACAUCAGUAGCAUCAGUGCCUGGACGUGCAGU
B7: g14 (ssRNA)
RNA: GGGACGCUCACGUACGCUAAUCAUCGGGACAUCGGAUGGAACGGGUGUCAAGAAGCGUGUUCAGUGCCUGGACGUGCAGU
B8: g37 (ssRNA)
RNA: GGGACGCUCACGUACGCUAAGGUUUGCUCCGACCGACUAAAGGGAGCCUCUGUCACGAGUUCAGUGCCUGGACGUGCAGU
B9: g12 (ssRNA)
RNA: GGGACGCUCACGUACGCUAACGCGGCCAUCCGGCGUUUGGAACGGGAUGUACACCUGACAUCAGUGCCUGGACGUGCAGU
B10: g21 (ssRNA)
RNA: GGGACGCUCACGUACGCUAACCUUGGUGUCAUCCGACCAAAUUAGAACGGGAUGAGGAAGUCAGUGCCUGGACGUGCAGU
B11: g38 (ssRNA)
RNA: GGGACGCUCACGUACGCUAACCAGGAGCAUUAGACCGGGGAAAGAAGGAGUACCGUCUGGUCAGUGCCUGGACGUGCAGU
B12: g32 (ssRNA)
RNA: GGGACGCUCACGUACGCUAAACAAGACCGGGAUGGGGGUUGGUCACACACAAAGACUGAAUCAGUGCCUGGACGUGCAGU
B13: g22 (ssRNA)
RNA: GGGACGCUCACGUACGCUAAGCGUGUUUCUUCAUUUCGACGCUGGCCAACGGAAAUGCAAUCAGUGCCUGGACGUGCAGU
B14: g34 (ssRNA)
RNA: GGGACGCUCACGUACGCUAAUUUGGUGAAUUCCGACCAUUUUGCAAACGGGAUACGGGACUCAGUGCCUGGACGUGCAGU
B15: g17 (ssRNA)
RNA: GGGACGCUCACGUACGCUAAAGUGAUGGCCGGCUGGAGAAACGGGCCACUCGAUCCAGGUCAGUGCCUGGACGUGCAGU
B16: g19 (ssRNA)
RNA: GGGACGCUCACGUACGCUAAGUAGCCGUGAUUGGGUUGGCUGCCCACAAUUAUCCAGGACUCAGUGCCUGGACGUGCAGU
B17: g24 (ssRNA)
RNA: GGGACGCUCACGUACGCUAAGAGUUGUCGCACAGCGACUCGAAAAUAAUCUGUCCGACACUCAGUGCCUGGACGUGCAGU
B18: g18 (ssRNA)
RNA: GGGACGCUCACGUACGCUAAGGCACCCUAUAGGAUUCAGCCCCUAACCCGGUGUUGUGAAUCAGUGCCUGGACGUGCAGU
B19: g27 (ssRNA)
RNA: GGGACGCUCACGUACGCUAACCUAUGCAGACCGACAUCCGGGUAUACGGGAUGAUGCGACUCAGUGCCUGGACGUGCAGU
B20: g29 (ssRNA)
RNA: GGGACGCUCACGUACGCUAAACGAGCCGUGAUUGGGUUGGCAACCCUGCUUAUGUGAGGAUCAGUGCCUGGACGUGCAGU
B21: g15 (ssRNA)
RNA: GGGACGCUCACGUACGCUAAGACGCGGGCCACCGGCUAGCGACGGGUGGUAAAGGGCUUGUCAGUGCCUGGACGUGCAGU
B22: g20 (ssRNA)
RNA: GGGACGCUCACGUACGCUAAACGUUGUGGCGAACUUCGGCCCGAACGGGAGUAACUGCAUCAGUGCCUGGACGUGCAGU
B23: g23 (ssRNA)
RNA: GGGACGCUCACGUACGCUAAAUGGGAGUGCGCCUCGGCUCUAACGGAGGUAUGCACGUCAUCAGUGCCUGGACGUGCAGU
B24: g13 (ssRNA)
RNA: GGGACGCUCACGUACGCUAAUCACUCGGACAGCCGGAGCGAAACGGGCUGUGUAAGACUGUCAGUGCCUGGACGUGCAGU
B25: g33 (ssRNA)
RNA: GGGACGCUCACGUACGCUAAACUUUUGGCGAUCUCCGGCCGGAUACGGGAGAACGAGGUAUCAGUGCCUGGACGUGCAGU
B26: g28 (ssRNA)
RNA: GGGACGCUCACGUACGCUAACCUGGGGGUUCCGCAGGAAUCGGGAACUAGAUUGGUGGUCUCAGUGCCUGGACGUGCAGU
B27: g35 (ssRNA)
RNA: GGGACGCUCACGUACGCUAAGAUUUGUGUGAUACCCGACACUCUAACGGGGUAGCAGGGCUCAGUGCCUGGACGUGCAGU
B28: g16 (ssRNA)
RNA: GGGACGCUCACGUACGCUAACCGCUACCGGGUGCAACGGGUAGACUGUAACCAGGUGAUAUCAGUGCCUGGACGUGCAGU
B29: g31 (ssRNA)
RNA: GGGACGCUCACGUACGCUAAAGAGUCUAUGCCGUGAGUGAGGGUGGCGCCUCGACUGCCAUCAGUGCCUGGACGUGCAGU
B30: g25 (ssRNA)
RNA: GGGACGCUCACGUACGCUAAUAGCAACAGUUCCCAGAGGUGAUCAGGCAGCCUUAAGACAUCAGUGCCUGGACGUGCAGU
B31: g30 (ssRNA)
RNA: GGGACGCUCACGUACGCUAAAAAUUGCCGGGAUCUGGUGUGGCGACCAUGCGGCGUGCAUUCAGUGCCUGGACGUGCAGU
B32: g36 (ssRNA)
RNA: GGGACGCUCACGUACGCUAACUUGAUUGGUCGCAACCGGACAAGGACGGGUUGAUGCAGUUCAGUGCCUGGACGUGCAGU

Biological target: T1, rec-cMet (Recombinant Human HGF R/c-MET/Fc Chimera) (Homo sapiens, UniProt P08581;P08581 SEQ:1-283,SEQ:1-625)
T1 sequence (P08581 25-307, change not shown, chain 1 of 2): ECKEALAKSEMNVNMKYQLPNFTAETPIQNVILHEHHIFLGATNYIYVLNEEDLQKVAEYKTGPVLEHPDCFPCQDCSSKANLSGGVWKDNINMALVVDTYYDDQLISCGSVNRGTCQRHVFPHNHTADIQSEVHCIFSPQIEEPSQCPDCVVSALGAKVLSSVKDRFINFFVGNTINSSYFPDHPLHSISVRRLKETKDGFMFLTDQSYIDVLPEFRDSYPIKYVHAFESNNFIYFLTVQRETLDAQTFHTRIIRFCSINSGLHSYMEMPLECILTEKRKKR
T1 sequence (P08581 308-932, change not shown, chain 2 of 2): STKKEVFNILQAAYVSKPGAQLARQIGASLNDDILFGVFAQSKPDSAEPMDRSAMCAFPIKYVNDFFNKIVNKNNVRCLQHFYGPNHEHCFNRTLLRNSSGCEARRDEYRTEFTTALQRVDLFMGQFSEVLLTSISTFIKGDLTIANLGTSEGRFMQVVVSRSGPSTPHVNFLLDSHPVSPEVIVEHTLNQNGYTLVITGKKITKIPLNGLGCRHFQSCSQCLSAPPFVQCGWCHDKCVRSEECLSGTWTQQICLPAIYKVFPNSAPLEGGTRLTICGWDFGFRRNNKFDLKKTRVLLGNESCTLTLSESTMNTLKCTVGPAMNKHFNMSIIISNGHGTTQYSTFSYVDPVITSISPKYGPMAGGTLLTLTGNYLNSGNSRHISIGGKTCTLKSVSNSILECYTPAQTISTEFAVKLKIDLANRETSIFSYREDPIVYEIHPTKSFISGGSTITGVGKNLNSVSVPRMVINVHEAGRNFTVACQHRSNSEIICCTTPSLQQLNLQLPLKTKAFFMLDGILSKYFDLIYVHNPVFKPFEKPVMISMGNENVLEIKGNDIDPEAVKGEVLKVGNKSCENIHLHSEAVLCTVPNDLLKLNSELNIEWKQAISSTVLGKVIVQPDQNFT
Experiment: ELONA; signal higher than g1
Conditions: tags: C-terminal HIEGRMD linker, human IgG Fc (100-330), 6xHis; R&D Systems; chain copies: 2 (inferred, Fc chimera)
Protocol: An anti-IgG antibody (trade name: “Human IgG-Fc Antibody”, Bethyl Laboratories) was adsorbed on a 96-well plate (Iwaki, AGC Techno Glass Co., Ltd., Japan), and then was subjected to blocking using 1% bovine serum albumin. Subsequently, 50 μL of the 1 μg/mL rec-cMet was added to the plate. Further, Tris (20 mmol/L), sodium chloride (100 mmol/L), magnesium acetate (0.1 mmol/L) and Triton (registered trademark)-X100 (0.2%) were added to the plate so that their final concentrations would be as shown in the parentheses. The plate was incubated at room temperature for 3 hours, thus causing the rec-cMet to bind to the plate. After the incubation, the plate was washed three times with a washing solution. The composition of the washing solution was as follows: 20 mmol/L Tris, 100 mmol/L sodium chloride, 0.1 mmol/L magnesium acetate, and 0.2% Triton (registered trademark)-X100. As a control, incubation and washing were carried out in the same manner, except that 50 μL of the washing solution was added instead of 50 μL of the rec-cMet.
Next, a 20-mer polyadenine (poly A) was added to the 3′ end of each of the RNA aptamers. Thus, poly-A-added RNA aptamers were prepared. Each of the poly-A-added RNA aptamers was denatured, and thereafter, the denatured poly-A-added RNA aptamer was mixed with a 20-mer biotinylated polythymine with its 5′ end being biotinylated (740 nmol/L), tRNA (100 μg/mL), and an RNase inhibitor (0.16 units/mL). As a result, complementary binding occurred between the poly A in the poly-A-added RNA aptamer and the polythymine (poly T) in the biotinylated polythymine, whereby a biotin-labeled RNA aptamer was produced. The biotin-labeled RNA aptamer was added to the plate, and the plate was incubated at 4° C. for 30 minutes. Subsequently, the plate was washed, and 0.1 μg/mL HRP-streptavidin (Thermo Fisher Scientific Inc., USA) was added thereto. The plate was then washed, after which a 1-Step Ultra TMB substrate (Thermo Fisher Scientific Inc., USA) was added to the plate to cause color development, and the absorbance at 450 nm was measured.
The binding ability of each of the RNA aptamers to the rec-cMet was examined in the same manner as in Example 1, except that the truncated RNA aptamers were used. Also, the binding ability of the RNA aptamer g1 was examined in the same manner.

Binding result, binds:
B1, B2, B3, B4, B5

Biological target: T1, rec-cMet (Recombinant Human HGF …)
Experiment: SPR; rec-cMet 100 nM
Conditions: tags: C-terminal HIEGRMD linker, human IgG Fc (100-330), 6xHis; R&D Systems; chain copies: 2 (inferred, Fc chimera)
Protocol: Using these truncated RNA aptamers, the binding ability thereof to the rec-cMet was examined. The binding ability was analyzed using BIACORE (registered trademark) X (GE Healthcare) in accordance with its instructions for use, with the concentration of the rec-cMet being set to 175 nmol/L. Also, the binding ability of each of the RNA aptamers g1 and g1-trA was examined in the same manner. As a comparative example, the 40N was used, and the binding ability thereof was examined in the same manner.
The binding ability of each of the RNA aptamers to the rec-cMet was examined in the same manner as in Example 5, except that the above RNA aptamers were used. The concentration of the rec-cMet was set to 100 nmol/L. With the time point at which the introduction of the rec-cMet to the chip was started being 0 seconds, introduction of a buffer was started 60 seconds later.

Binding result, binds:
B6, B7, B8, B9, B10, B11, B12, B13, B14, B15, B16, B17, B18, B19, B20, B21, B22, B23, B24, B25, B26, B27, B28, B29, B30, B31, B32
